Source: a protein production outcome set (Wang et al. 2014)

Test: label from the status in PepcDB records
For “GTAYWKNPDQFTAFNTGLHALLREKSYNFFLLGEPRADIYGDNPIGGEASQGMERLPFNTINKENVGISNYGDMYKIINQINQMIAKTTETTILTEATQNYYLGEAYGMRAYLYFHLLRSWGDVVLYLDYTEGQNLDLSNITKGVSPATEVMEQIKKDIQASENAFGSDYSFKLGRHFWSAAATQMLKGEAYLWSGRQMNGGNSDYTIAKNAFENVKKADVGLVTSSFKDIFSFENKKNKEMIFTIHNGKDEYEMWGGYYRMRLIPAQDKMVKIYCDENGNSFVGTPDAQLNGLTQLQVRREFYFKGFRNNDTRWTTSLKAVYKKDAQGVVSYFGPITYKFQGTMLEGGSTRSFLDDFPIYRYADCLLQLAMAKVLLGEDPTEEINAVRERAYGSKYFNEHKAEIAYPNDNDPEFYTDNKWMKPDNAGALEAILKERLREFMFEGKRWYDIRLLGWDYVHQYSSAEQSRLLWPIDAGTLTNNSALKQTPGYE”, the protein production was “not failed”.
For “GTPVSDAEEIKVKYGCALSELVSKDDTVNVPSVGGRPSRSLQRQTLSEVIEPRYSELMGLVNQTIDSVQAKLREEGIKHH”, the protein production was “failed”.
For “GTQAGVPAWSTIKVPISIAALRANPGNDVLMRQAITVSDNDAARALWDSLGSPREKVGAVLAQGGDPQTQVNDQPGMRTFC”, the protein production was “failed”.
With “GVLDDIRFGVRRTLNARIASQAQWYALGAEQLARTRIAQLMDREPNKTTLEGGWNGRVISFPIEQGRMEAKLTDATGCFNLNSVVEANQGEPFRRRELGVRQFTTLLSLVGVSNGPELAENLADWMDSNDVGRAEAEDPGYAQLAQPYRTAGGPLAEVSELRAIRGFTPSVYAALRPYVCALPTTDLSPINVNTLPPERALLLTALTEGRIGRETAARVLSGRPVNGWPDAQAFWGQQALVATPPGDVVRDQIKFRTRFFALDSQIVFADMPVFMTALFETPSASKVILA” the protein production was “failed”.
In the case of “GVSVSPDETMLAFGEDVLSRRVYNIYFKDIESGAMITDVLENTEGRIVWGNDNRHVFYIAKDLQTLLGNRVYRHELGTPQSRDVLVYEEQDDAYYISLGKSLDESQIVLFHESTTTSEVSVLDANDPLSLFKPVLAREEGHEYSVSKLGDSYYVLTNWQATNFRLMKVAIKDAADKSKWQEVVAHNPNARLEDELVLKDYLIIQTRENGLTRIKVMPFNGQKPFELSFDEPAYVLGLDVNA”, the protein production is reported as “failed”.
For “HALAERDRPLPTHLVLSGRMPPHTGYSPLLGAMDDNQLWQHVCSESLLPLPTDASCSFARHALGKLKADLALNAQLTYRFIRPLPVPLYVLNGQDDPLLELHRLDEWQRYTSTSFHSEYVPGGHFFFNINFQLLYLPLLTALD”, the protein production was “failed”.
With “HALGAPVLRVEGLSQAGHFRNVSFEVRAGEVLGITGLLGSGVKELVECLFGLEQPDAGSVTIDGEVRRFANPGRAVQGRVALVPEDRRAHGVATDMSVRDNITIASLERYMTRGFVSRARENEAVDGFIRELSIKTPHRDQLVRNLSGGNQQKVALAKWLSCQSRVYVLDEPTVAVDVGAKVEIYTLLNRLAAEGAAILFLSSDLLEIAGFCDRALVVYRGTLNGEFAGETLDSDLLLAAASGARAQRKEA” the protein production was “failed”.
For “HARKSLTVLVVGESARAENFGILGYGRNTTPNLNKENGLVAFTDVYSCGTETAVSVPCMFSNMGRKNYNATKARNQEGLLDVLKHAGIEVAWRDNQSGCKGTCDRVTFQDVSNLTDPLLCNSHECRDEILLQNLQGFIDSLDKDTVLVLHQMGSHGPEYYKRYPKEFEKFTPVCESNALNNCSRDSIVNAYDNTLLYTDHVLSTLIDLLRSNQAKVDTAMVYLSDHGESLGEYNLFLHGTPYVLAPDQQKHVPMLIWLSDTYQKSFAVTPDCLAKQRNAPLSQDNLFHSMLGLLKVDTKVY”, the protein production was “failed”.
In the case of “HEETECPLRLAVCQHCDLELSILKLKEHEDYCGARTELCGNCGRNVLVKDLKTHPEVCGREG”, the protein production is reported as “not failed”.
For “HIQKGIAGEQKACAFLEQQGYKIIEKNLRIGKGEIDLIAVHNNCMCFIEVKYRKHNRYGFPEEFVTQKKLLKIQETAEAYIYTVNWQGRIRFDVVAITGEELPVHL”, the protein production was “failed”.
In the case of “HKPWRAEYAKSSRSSCKTCKSVINKENFRLGKLVQSTHFDGIMPMWNHASCILKKTKQIKSVDDVEGIESLRWEDQQKIRKYVESGAGSNTSTSTGTSTSS”, the protein production is reported as “not failed”.
With “HLDASLQEVAEHAFGDYLGGLVALDPNTGGVLALVSKPGFDPNLFVDGIDPETWKSLNESPERPMVNRALRGIYPPGSTIKPLMALAGLELGLREPDDSIDDPGFFRLPNSQHRFRDWKPGGHGIVDLRRSISQSCDIYYYRLAVDMGIDRMHDYLTQFGLGQKTGIDLQGESSGLLPSRAWKQRRWKQPWYPGETVIAGIGQGYHLTTPLQLATMTAMLANGGKRIQPRLVDAVRDPHTRAWQTQAPVMLGEVAIDPENLAVVRQGMMDVTRPGGTAAASAAGAAYGIAGKTGTAQVVGIKQGARYDATRLAREHRDHALFVAYAPAENPVIAVAVMVENGGSGSGTAAPIARAVFDYYLTGKRPGTMKLETDDAAD” the protein production was “failed”.
In the case of “HPNVTFIIGENGTGKSTLLEGIAIALGFNAEGGTKNFRFSTNDSHSSLHEYLRISKSFNTPSDGFFLRAESFYNVASYIDEIDADLEARGNPVIDSYGGISLHEQSHGESFFSLFMNRFSGQGLYILDEPEAALSPMRQLSMLIRMHELAEQGSQFVIATHSPILMAYPESTIYSLTQEG”, the protein production is reported as “failed”.
With “HRAKIRMEALPEDYERVPGTDMTPEQAYNVSNLDPALQKALDDLSPDFRVAVVLCDVVGMSYDEIADTLGVKMGTVRSRIHRGRSQLRAHLENQATSDEGAQLLLATGR” the protein production was “failed”.
In the case of “HSHSDKHPVTWQPSKDGDRLIGRILLNKRLKDGSVPRDSGAMLGLKVVGGKMTESGRLCAFITKVKKGSLADTVGHLRPGDEVLEWNGRLLQGATFEEVYNIILESKPEPQVELVVSR”, the protein production is reported as “not failed”.
In the case of “HVSDLDWLMSGLVQRVPHTTSAVLLSCDGLVKSVHGLDPDSADHMAALASGLYSLGRSAGIRFGDGGDVRQVVVELDSTLLFVSTAGSGTCLAVLAGREADAAVLGYEMAMLVKSVRPYLMTAPRQ”, the protein production is reported as “not failed”.
With “HYSPFRSQPVDCVLWVKQELVAPNDYNPNNVAPPEKRLLQTSLEADGFTQPVVVIQQRPQAYTIVDGFHRHELACSKAALKKTLKGYLPVTCLTSEAASRDGLMAATIRHNRARGRHQ” the protein production was “failed”.
In the case of “IDTVAPDMRIHGFLNAQEFTLYLDTSGEALFKRGLRQTQGEAPLRENLAAGILALTGWQPGTPLLDPMCGSGTLLLEAAQIACRIAPGSGRQFAFEQLKLFDARSWKKLKQTATERQHERTFQSIYGSDLYGSALAHTRNNLAAAGLAECVTLKQANVLEISAPAETGILVSNPPYGVRIGDHQMLAEFYPRLGDVLKQRFSGWRAFLLTADPLLAKSIRLTPSRRTPLFNGALECRLLEYRLVAGSMRREKQPSSESSTNQPIT”, the protein production is reported as “failed”.
With “IEVKQLEFPAFKVEIQKWLHFHINWQNDMDYIEKTNHTFYGAYVDNDLKGSICINEQGKISFIFIDKEYRNRGIGSKLLQVARDELNLESLLISFPNNSLLEGFLKKTGFEKNSLAQYEMYVLL” the protein production was “failed”.
For “IHNSRWIMTPEVKEDCKMRLFCLPFAGGGALAYRSWCRYMPPEIELCAVQLPGRENRIKDEKFYDINLLIDELVLQILPYLDKPFALYGHSMGGLISFELARRIRKVKGLTPKILFFSGSKAPQLYDHTKDISHLPDELFLKAIKSFNGMPDMFWQDRELIEFKLPTLRADFSVLEGYNYYNEEPLECPISALCGENDKIISKKDMEALALQTKNQFKLRMFDGDHFFINTCRSKVLKSIIEDLN”, the protein production was “not failed”.
With “IIGNAEAICLPELGITHLEARIDTGAQTSSLHVDNIDCFEKDGQSYVAFDLHPDVYHLEQVVRCTAKLKANRKVKSSNGTFEHRCVITTMLRLGDQEWPIDITLTNREKMTYMMLLGRQGMADKVLVDPSQSH” the protein production was “failed”.
With “IKHKQLIEQVMIYIEKHLAENITLQDIADELYISRNYLGQIFKKVVGESFKNYVTRLRMEKAKKMIQEGNFLIYEVSEKVGYVNPAYFTTMFKKYTGYTPRDLIQK” the protein production was “failed”.
For “ILHRDADFLLRALQPDDFVRTSRYENANREHLAPWEPLRDPGYFSVDNARARTLLQVASMDEGEALLLLLLDPDDGEVLGRCSYTNIVRGVFQACHLGFSLAAAAQGRGLMARALRVANRYCFEQLGLHRIMASHLPRNARSERLLESLGFEKEGYARAYLKIAGVWEDHVLR”, the protein production was “failed”.
In the case of “ISLAVLAVSIIFLGVTVIQNKKKIDPALKELSSVTQAMQKQIEGLKTETELLTQKQKKIQQDVQIKKYTLQQTAAEVKEVPQAVKEVWQA”, the protein production is reported as “not failed”.
With “ISMIGERTNSNGSKAFREAMLSGDWEKCVDIAKQQTRDGAHMLDLCVDYVGRDGTADMATLAALLATSSTLPIMIDSTEPEVIRTGLEHLGGRSIVNSVNFEDGDGPESRYQRIMKLVKQHGAAVVALTIDEEGQARTAEHKVRIAKRLIDDITGSYGLDIKDIVVDCLTFPISTGQEETRRDGIETIEAIRELKKLYPEIHTTLGLSNISFGLNPAARQVLNSVFLNECIEAGLDSAIAHSSKILPMNRIDDRQREVALDMVYDRRTEDYDPLQEFMQL” the protein production was “failed”.
With “ITARRRGELRRDALLKMGDQLRSLTTIQDMTGIASEIVGRALGAVRAGFGRVDPGEESVIIENDWSAAGYASLAGWHSLSDHPSFETANATKQPVVVADVAAAPPDNLSSQAKDDPGIGSLAVIPIENHDGSTALFFVHVAEPRDWSDDDLAFLRNVGDRLAAGVGRLDAEALQHTLNLELSHRMKNTLAMVMAIARQTLRSIP” the protein production was “failed”.
In the case of “ITIRDDILFQSGSAELTAGKREIAKEIGELFAQGKGTMEGIVSGHTDNVPISTSIYSSNWELSVARAVNFMEAIIQENSEVNPGEFSARGYGEFRPVAKNDIAANREKNRRVEIMVRPINRDTLDEDE”, the protein production is reported as “failed”.
With “ITVADQISHWSAGRIKNRTRIPECIHSSAATTLAGPHTMEGESVKLSSQTLIQAGDDEKNQRTITVNPAHMGKAFKVMNELRSKQLLCDVMIVAEDVEIEAHRVVLAACSPYFCAMFTGDMSESKAKKIEIKDVDGQTLSKLIDYIYTAEIEVTEENVQVLLPAASLLQLMDVRQNCCDFLQSQLHPTNCLGIRAFADVHTCTDLLQQANAYAEQHFPEVMLGEEFLSLSLDQVCSLISSDKLTVSSEEKVFEAVISWINYEKETRLEHMAKLMEHVRLPLLPRDYLVQTVEEEALIKNNNTCKDFLIEAMKYHLLPLDQRLLIKNPRTKPRTPVSLPKVMIVVGGQAPKAIRSVECYDFEEDRWDQIAELPSRRCRAGVVFMAGHVYAVGGFNGSLRVRTVDVYDGVKDQWTSIASMQERRSTLGAAVLNDLLYAVGGFDGSTGLASVEAYSYKTNEWFFVAPMNTRRSSVGVGVVEGKLYAVGGYDGASRQCLSTVEQYNPATNEWIYVADMSTRRSGAGVGVLSGQLYATGGHDGPLVRKSVEVYDPGTNTWKQVADMNMCRRNAGVCAVNGLLYVVGGDDGSCNLASVEYYNPVTDKWTLLPTNMSTGRSYAGVAVIHKSL” the protein production was “not failed”.
In the case of “IVRDSQRHKQLPVDRRKSQMEEVQDELIHRLTIGRSAAQKKFHVPRQNVPVINITYDSTPEDVKTWLQSKGFNPVTVNSLGVLNGAQLFSLNKDELRTVCPEGARVYSQITVQKAALEDSSGSSELQEIMRRRQEKISAAASDSGVESFDEGSSH”, the protein production is reported as “failed”.
With “KASTKLHVGNISPTCTNQELRAKFEEYGPVIECDIVKDYAFVHMERAEDAVEAIRGLDNTEFQGKRMHVQLSTSRLRTA” the protein production was “not failed”.
In the case of “KERILSSERLAKIMMSELGDKRQEHLIAIYLDTQNRVIKKQVIFIGSVRRSVAEPREILHYACKSMATSLIIVHNHPSGSTYPSENDLRFTEKIKRSCDDLGIVFLDHIIVGKKEYYSFREETDLV”, the protein production is reported as “not failed”.
